The values that follow come from paper PMC10090947.

Experiment [1] has as its target nonreceptor tyrosine phosphatase 14 (PTPN14), endogenous (UniProt Q15678). Put plainly: streptavidin affinity purification and MS (MS1 intensity). The conditions noted are these: three independent biological replicates; parent: est. -0.1; read off a plot.
Experiment [2] has as its target Large tumor suppressor 1 (LATS1), endogenous (UniProt O95835). The description is as above. The conditions noted are these: three independent biological replicates; parent: est. -0.1; read off a plot.
Sequence of UniProt O95835 (O95835 whole entry): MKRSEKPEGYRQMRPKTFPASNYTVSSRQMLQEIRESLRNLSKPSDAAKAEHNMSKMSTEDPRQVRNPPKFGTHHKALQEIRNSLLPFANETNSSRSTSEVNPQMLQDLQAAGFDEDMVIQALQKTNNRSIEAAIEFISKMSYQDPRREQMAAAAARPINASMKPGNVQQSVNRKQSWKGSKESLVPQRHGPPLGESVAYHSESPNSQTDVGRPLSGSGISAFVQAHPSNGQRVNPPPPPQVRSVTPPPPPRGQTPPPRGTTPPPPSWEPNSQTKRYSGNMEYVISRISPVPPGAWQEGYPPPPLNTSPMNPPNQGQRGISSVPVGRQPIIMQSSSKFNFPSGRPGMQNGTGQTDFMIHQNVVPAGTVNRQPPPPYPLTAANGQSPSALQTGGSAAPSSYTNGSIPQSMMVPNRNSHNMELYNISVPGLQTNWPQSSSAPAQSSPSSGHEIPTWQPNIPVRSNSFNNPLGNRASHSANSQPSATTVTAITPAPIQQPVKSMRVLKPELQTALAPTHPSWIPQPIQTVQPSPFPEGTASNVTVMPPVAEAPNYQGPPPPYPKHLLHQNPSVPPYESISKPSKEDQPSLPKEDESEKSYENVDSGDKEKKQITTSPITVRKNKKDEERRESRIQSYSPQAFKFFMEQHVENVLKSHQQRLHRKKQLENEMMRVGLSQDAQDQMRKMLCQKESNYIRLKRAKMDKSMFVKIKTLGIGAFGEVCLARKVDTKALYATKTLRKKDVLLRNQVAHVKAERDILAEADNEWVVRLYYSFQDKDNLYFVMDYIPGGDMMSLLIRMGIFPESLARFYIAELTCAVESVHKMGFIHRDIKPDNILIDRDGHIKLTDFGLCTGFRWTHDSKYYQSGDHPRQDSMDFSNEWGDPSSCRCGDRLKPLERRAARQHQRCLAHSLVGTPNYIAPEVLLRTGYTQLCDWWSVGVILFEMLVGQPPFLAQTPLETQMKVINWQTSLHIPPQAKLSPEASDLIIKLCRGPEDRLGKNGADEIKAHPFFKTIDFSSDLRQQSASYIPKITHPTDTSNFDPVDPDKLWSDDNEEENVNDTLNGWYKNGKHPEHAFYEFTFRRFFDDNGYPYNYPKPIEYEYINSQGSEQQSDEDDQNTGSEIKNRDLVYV
A further experiment has as its target AMOTL1 (UniProt Q8IY63). Put plainly: AP-MS (MS1 intensity). The conditions noted are these: parent: est. 34; read off a plot.
Sequence of UniProt Q8IY63 (Q8IY63 whole entry): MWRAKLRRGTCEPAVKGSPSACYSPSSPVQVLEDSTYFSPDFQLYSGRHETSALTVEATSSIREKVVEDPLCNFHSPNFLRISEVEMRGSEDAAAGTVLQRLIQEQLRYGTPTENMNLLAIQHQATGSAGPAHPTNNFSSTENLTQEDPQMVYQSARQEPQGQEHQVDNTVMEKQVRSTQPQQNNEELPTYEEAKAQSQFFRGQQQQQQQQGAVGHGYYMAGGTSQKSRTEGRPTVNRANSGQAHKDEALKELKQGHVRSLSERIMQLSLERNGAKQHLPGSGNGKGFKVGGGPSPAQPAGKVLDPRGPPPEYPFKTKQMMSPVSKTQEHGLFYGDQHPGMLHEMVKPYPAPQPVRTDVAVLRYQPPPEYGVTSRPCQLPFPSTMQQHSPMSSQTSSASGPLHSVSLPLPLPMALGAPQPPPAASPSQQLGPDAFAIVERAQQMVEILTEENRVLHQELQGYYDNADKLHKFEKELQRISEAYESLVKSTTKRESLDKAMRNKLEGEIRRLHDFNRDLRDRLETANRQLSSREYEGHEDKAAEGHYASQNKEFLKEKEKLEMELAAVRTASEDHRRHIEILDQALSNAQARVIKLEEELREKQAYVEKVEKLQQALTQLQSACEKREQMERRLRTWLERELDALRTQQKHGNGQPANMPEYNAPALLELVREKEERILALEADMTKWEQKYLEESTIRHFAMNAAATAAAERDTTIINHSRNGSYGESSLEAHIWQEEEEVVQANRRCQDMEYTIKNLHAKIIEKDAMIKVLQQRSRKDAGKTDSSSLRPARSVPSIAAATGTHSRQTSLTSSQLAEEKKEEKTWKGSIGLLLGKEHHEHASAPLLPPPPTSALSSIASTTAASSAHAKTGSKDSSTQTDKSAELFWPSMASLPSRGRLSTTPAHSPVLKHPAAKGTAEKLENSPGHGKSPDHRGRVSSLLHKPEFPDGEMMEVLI
The target in the next experiment is CCDC85C (UniProt A6NKD9). Put plainly: AP-MS (MS1 intensity). Particulars: parent: est. 32; read off a plot.
Sequence of UniProt A6NKD9 (A6NKD9 whole entry): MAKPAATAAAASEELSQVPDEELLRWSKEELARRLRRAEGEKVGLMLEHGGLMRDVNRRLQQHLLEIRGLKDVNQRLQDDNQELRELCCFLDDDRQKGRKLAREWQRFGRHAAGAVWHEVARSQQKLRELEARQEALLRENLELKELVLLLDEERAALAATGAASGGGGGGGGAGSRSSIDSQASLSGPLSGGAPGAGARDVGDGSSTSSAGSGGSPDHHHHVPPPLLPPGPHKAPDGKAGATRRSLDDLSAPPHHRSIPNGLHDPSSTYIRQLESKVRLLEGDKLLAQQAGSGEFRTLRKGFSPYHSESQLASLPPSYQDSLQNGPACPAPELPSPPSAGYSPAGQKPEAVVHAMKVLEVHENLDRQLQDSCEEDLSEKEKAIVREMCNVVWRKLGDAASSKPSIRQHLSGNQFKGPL
Another experiment deals with TP53BP2 (UniProt Q13625). Put plainly: AP-MS (MS1 intensity). The conditions noted are these: parent: est. 33; read off a plot.
Sequence of UniProt Q13625 (Q13625 whole entry): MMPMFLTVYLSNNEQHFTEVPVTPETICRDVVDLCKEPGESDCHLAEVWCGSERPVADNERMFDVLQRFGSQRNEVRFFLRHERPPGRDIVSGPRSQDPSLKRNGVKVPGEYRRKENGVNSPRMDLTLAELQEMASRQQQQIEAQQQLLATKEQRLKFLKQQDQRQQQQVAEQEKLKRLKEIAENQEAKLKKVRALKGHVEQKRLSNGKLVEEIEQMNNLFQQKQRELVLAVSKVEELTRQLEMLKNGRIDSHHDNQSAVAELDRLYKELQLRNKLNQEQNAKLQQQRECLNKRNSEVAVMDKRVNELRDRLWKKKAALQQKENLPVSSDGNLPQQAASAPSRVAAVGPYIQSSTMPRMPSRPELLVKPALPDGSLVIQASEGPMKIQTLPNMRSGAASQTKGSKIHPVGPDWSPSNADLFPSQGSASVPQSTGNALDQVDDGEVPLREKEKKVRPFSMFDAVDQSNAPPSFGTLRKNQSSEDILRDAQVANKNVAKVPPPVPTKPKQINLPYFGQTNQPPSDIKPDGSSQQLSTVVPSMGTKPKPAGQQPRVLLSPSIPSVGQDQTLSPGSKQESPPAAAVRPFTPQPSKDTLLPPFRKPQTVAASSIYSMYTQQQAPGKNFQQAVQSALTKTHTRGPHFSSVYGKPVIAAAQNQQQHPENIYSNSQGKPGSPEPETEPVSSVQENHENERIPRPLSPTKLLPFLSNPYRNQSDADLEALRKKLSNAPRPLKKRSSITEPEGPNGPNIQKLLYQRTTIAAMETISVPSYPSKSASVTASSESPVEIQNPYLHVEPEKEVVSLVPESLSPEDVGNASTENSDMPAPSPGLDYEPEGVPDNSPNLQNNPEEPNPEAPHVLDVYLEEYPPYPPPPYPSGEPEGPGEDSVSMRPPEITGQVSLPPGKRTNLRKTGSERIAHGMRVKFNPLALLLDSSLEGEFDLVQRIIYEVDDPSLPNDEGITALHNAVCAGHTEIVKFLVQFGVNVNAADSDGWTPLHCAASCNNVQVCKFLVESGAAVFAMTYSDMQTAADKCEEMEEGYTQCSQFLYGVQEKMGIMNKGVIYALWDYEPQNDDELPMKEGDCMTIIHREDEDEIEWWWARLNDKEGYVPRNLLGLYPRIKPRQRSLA
Experiment [3] has as its target nonreceptor tyrosine phosphatase 14 (PTPN14), endogenous (UniProt Q15678). Put plainly: Strep AP-MS. Particulars: three biological replicates; parent: est. 0.0; read off a plot.
Experiment [4] addresses Large tumor suppressor 1 (LATS1), endogenous (UniProt O95835). Put plainly: Strep AP-MS. The conditions noted are these: three biological replicates; parent: est. 0.0; read off a plot.

Sequence of UniProt Q15678 (Q15678 whole entry): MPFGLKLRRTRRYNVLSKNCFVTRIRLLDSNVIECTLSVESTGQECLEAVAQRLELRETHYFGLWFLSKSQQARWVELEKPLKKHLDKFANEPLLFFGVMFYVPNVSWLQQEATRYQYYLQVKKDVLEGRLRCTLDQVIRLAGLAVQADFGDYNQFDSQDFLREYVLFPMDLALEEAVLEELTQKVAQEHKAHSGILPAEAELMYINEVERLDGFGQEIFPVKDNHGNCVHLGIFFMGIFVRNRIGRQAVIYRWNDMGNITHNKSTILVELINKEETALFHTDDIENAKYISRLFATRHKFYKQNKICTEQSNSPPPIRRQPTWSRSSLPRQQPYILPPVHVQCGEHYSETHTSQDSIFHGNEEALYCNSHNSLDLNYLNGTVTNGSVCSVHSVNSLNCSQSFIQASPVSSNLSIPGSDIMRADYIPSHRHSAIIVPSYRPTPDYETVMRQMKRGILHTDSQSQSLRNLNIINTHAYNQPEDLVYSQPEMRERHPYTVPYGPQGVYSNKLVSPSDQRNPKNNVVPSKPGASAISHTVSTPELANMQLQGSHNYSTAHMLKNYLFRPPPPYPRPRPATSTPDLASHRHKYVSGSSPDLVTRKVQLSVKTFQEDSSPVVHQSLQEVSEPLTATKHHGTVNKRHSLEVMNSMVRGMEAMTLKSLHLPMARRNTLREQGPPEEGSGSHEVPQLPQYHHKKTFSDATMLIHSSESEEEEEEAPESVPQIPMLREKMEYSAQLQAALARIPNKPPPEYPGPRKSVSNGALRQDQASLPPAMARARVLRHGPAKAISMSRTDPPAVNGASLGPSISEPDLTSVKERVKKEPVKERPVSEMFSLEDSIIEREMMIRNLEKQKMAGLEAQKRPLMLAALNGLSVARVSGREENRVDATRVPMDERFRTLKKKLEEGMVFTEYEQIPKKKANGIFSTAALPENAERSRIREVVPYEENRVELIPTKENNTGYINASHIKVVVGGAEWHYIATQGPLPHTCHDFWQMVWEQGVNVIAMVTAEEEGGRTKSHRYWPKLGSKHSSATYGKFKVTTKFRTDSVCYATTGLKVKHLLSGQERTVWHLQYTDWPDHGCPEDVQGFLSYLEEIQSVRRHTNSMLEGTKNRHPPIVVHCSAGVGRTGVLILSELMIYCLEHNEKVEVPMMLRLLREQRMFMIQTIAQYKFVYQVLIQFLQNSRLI

Take Strep‐HA YAP1 (wild type) 5SA: the other: log2(mutant vs WT) in experiment [1] was 0; in experiment [2], -0.6.

As to Strep‐HA YAP1 (wild type) S367A, the response (log2(Intensity)) in the experiment with AMOTL1 was found to be 34; with CCDC85C, 28; in the experiment with TP53BP2, 30.

Take Strep‐HA YAP1 (wild type) ΔWW1: the other: log2(mutant vs WT) in experiment [1] is -3.4; in experiment [2] it was -7.2; in experiment [3], -3.4; in experiment [4], -7.2.

For the substance Strep‐HA YAP1 (wild type) ΔWW1/2, the other: log2(mutant vs WT) in experiment [1] is -9.2; in experiment [2], -7; in experiment [3] it was -9.2; in experiment [4] it was -7.

As for Strep‐HA YAP1 (wild type) ΔWW2, the other: log2(mutant vs WT) in experiment [1] was -7.7; in experiment [2], -3.6; in experiment [3], -7.7; in experiment [4], -3.6.
